From US20160319287A1 (WESTF LISCHE WILHELMS UNIVERSIT T M NSTER, published 2016)
No end group written: not given here. FI = 5(6)-carboxyfluorescein

Tests used:
Assay in all cases: cell-based or functional assay
MBP-M1^C-SENP1-H6 = target: T1, MBP-M1^C-SENP1-H6 (human, UniProt Q9P0U3 419-644)
T1 sequence (Q9P0U3 whole entry, looked up): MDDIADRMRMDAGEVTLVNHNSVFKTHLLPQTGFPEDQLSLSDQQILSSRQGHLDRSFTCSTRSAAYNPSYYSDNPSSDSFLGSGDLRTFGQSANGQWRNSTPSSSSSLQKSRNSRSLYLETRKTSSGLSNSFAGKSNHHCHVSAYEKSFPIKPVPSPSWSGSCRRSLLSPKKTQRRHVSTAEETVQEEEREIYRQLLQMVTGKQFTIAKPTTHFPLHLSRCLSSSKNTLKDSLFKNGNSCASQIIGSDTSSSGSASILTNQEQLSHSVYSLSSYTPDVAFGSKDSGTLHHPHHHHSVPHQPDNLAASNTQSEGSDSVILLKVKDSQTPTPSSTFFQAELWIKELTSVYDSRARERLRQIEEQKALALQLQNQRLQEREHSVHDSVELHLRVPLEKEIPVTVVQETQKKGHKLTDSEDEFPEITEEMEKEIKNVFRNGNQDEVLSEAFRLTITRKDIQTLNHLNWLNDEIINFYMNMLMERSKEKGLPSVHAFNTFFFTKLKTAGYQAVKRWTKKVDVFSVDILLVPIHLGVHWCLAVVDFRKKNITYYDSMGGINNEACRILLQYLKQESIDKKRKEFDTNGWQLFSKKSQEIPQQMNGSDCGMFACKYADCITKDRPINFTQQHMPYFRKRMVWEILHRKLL

MBP-M1^C-EGFP-H6 = target: MBP-M1^C-EGFP-H6
Chain of MBP-M1^C-EGFP-H6 (main, as listed by the source): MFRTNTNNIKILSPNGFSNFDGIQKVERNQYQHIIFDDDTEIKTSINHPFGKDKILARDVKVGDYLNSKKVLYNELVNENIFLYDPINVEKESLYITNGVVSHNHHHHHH

[1] = target: WT^C-Trx-H6 (AceL-TerL Int^C fused to hexahistidine-tagged thioredoxin) (UniProt P0AA25 2-109 = thioredoxin)
Chain of WT^C-Trx-H6 (AceL-TerL Int^C fused to hexahistidine-tagged thioredoxin) (P0AA25 other isoform, or with tags, fused parts or gaps): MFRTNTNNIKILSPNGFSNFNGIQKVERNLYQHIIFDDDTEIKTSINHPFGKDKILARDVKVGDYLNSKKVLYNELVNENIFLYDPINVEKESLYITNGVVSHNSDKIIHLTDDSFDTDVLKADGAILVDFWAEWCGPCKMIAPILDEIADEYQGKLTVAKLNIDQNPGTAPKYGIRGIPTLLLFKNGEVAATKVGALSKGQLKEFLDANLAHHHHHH

MBP-M1^C-mRFP-H6 = target: MBP-M1^C-mRFP-H6
Chain of MBP-M1^C-mRFP-H6 (main, as listed by the source): as the sequence (main, as listed by the source) above

MBP-M1^C-Gluc-H6 = MBP-M1^C-Gluc-H6 (Gaussia princeps)
Chain of MBP-M1^C-Gluc-H6 (Gaussia princeps) (main, as listed by the source): as above

MBP-M1^C-Ubc9-H6 = MBP-M1^C-Ubc9-H6 (murine, UniProt P63280 1-158)
Chain of MBP-M1^C-Ubc9-H6 (P63280 other isoform, or with tags, fused parts or gaps): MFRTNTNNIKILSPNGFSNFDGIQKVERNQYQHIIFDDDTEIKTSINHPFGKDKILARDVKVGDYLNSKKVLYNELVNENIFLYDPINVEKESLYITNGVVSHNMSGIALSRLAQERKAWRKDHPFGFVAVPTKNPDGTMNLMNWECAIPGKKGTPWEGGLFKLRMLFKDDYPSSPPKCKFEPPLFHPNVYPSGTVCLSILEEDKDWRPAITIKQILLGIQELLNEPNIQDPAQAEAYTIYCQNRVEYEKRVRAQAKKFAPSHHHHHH

B1: pepWT^N (FI-KKEFE-IntN), synthetic peptide with the Int^N of the AceL-TerL intein (peptide)
peptide: {FI}-KKEFECVYGDTMVETEDGKIKIEDLYKRLA
yield of the N-terminally labelled splice product after 3 h at 8° C. (MBP-M1^C-SENP1-H6): ~80% | yield of the N-terminally labelled splice product after 3 h at 8° C. (MBP-M1^C-EGFP-H6): ~80% | splicing rate at 37° C. against 8° C. [1]: ~50 fold slower | t½ of splicing at 8° C. [1]: 7.2 min | yield of the N-terminally labelled splice product after 3 h at 8° C. (MBP-M1^C-mRFP-H6): ~80% | yield of the N-terminally labelled splice product after 3 h at 8° C. (MBP-M1^C-Gluc-H6): ~80% | yield of the N-terminally labelled splice product after 3 h at 8° C. (MBP-M1^C-Ubc9-H6): ~80%
